Here are results for three molecules from patent publication US20220017617A1 (SHANGHAI EPIMAB BIOTHERAPEUTICS, published 2022).

For test [1], the target named is T1, recombinant human EGFR (Sino Biological Inc) (human, UniProt P00533 25-645).
T1 construct: Bought reagent; also called epidermal growth factor receptor
Nature of the test: BLI (Octet RED96), comparison of KD values. The protocol:
(§1) Briefly, each parental mAb and FIT-Ig was characterized for affinities and binding kinetics by Octet®RED96 biolayer interferometry (Pall FortéBio LLC). Each parental mAb and FIT-Ig were captured by Anti-Human IgG Fc Capture (AHC) Biosensors (Pall) at a concentration of 100 nM for 30 seconds. Sensors were then dipped into running buffer (1X, pH 7.2, PBS, 0.05% Tween 20, 0.1% BSA) for 60 seconds to check baseline. Binding was measured by dipping sensors into […] recombinant human PD-L1 (Novoprotein) or recombinant human EGFR (Sino Biological Inc) both ranging from 1 nM to 200 nM. Dissociation was followed by dipping sensors into running buffer for 1200 seconds. The association and dissociation curves were fitted to a 1:1 Langmuir binding model using ForteBio Data Analysis software (Pall).

Test [2] deals with T2, recombinant human PD-L1 (Novoprotein) (human, UniProt Q9NZQ7 19-239, limits assumed).
T2 construct: Bought reagent; also called Programmed Death Ligand 1; CD274
T2 sequence (Q9NZQ7 19-239 limits assumed): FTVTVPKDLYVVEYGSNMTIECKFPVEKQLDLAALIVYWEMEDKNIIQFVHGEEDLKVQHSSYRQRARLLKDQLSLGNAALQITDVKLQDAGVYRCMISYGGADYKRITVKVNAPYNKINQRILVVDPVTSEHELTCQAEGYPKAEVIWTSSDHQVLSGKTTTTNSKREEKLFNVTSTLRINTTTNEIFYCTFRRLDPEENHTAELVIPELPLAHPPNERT
Briefly: BLI (Octet RED96), comparison of KD values. As for the experimental part: as §1

Test [3] has as its target T1, recombinant human EGFR (Sino Biological …). Nature of the test: BLI (Octet RED96), FIT-Ig captured on anti-human IgG Fc sensors, antigen in solution, 1:1 fit. The protocol:
as §1

Test [4] deals with T2, recombinant human PD-L1 (Novoprotein). The description is as above. As for the experimental part:
as §1

The target is the same in test [5]. Nature of the test: BLI (Octet RED96), antibody captured on anti-human IgG Fc sensors, antigen in solution, 1:1 fit. As for the experimental part:
as §1

B1: EGFR/PD-L1 FIT-Ig6 (bispecific antibody, human IgG1, kappa)
heavy: not shown
chain: QVQLQESGPGLVKPSETLSLTCTVSGGSVSSGDYYWTWIRQSPGKGLEWIGHIYYSGNTNYNPSLKSRLTISIDTSKTQFSLKLSSVTAADTAIYYCVRDRVTGAFDIWGQGTMVTVSSASTKGPSVFPLAPSSKSTSGGTAALGCLVKDYFPEPVTVSWNSGALTSGVHTFPAVLQSSGLYSLSSVVTVPSSSLGTQTYICNVNHKPSNTKVDKKVEPKSC
light: not shown
notes: Six-chain hexamer with no linkers; Human IgG1 Fc
Turning to B1, the “KD lower than that of the parental panitumumab” value in test [1] was about 25%. Besides, the “KD higher than that of the parental mAb 3G10” value in test [2] is about 30%. In test [3], the Kd was 0.491 nM, the koff came out at 0.000107 s⁻¹ and the kon was 218000 M⁻¹ s⁻¹. Further, in test [4], the Kd was 16.3 nM, the koff turned out to be 0.0144 s⁻¹ and the kon was 886000 M⁻¹ s⁻¹.

B2: anti-PD-L1 monoclonal antibody 3G10 (parental) (antibody, V domains shown)
VH: QVQLVQSGAEVKKPGASVKVSCKASGYTFTDYGFSWVRQAPGQGLEWMGWITAYNGNTNYAQKLQGRVTMTTDTSTSTVYMELRSLRSDDTAVYYCARDYFYGMDVWGQGTTVTVSS
VL: EIVLTQSPATLSLSPGERATLSCRASQSVSSYLVWYQQKPGQAPRLLIYDASNRATGIPARFSGSGSGTDFTLTISSLEPEDFAVYYCQQRSNWPRTFGQGTKVEIK
notes: It was captured by anti-human IgG Fc sensors; also called mAb 3G10; parental anti-PD-L1 mAb 3G10
Take B2: in test [5], the Kd was found to be 12.5 nM, the koff is 0.0122 s⁻¹ and the kon was 979000 M⁻¹ s⁻¹.

B3: PD-L1/EGFR FIT-Ig5 (bispecific antibody, human IgG1, kappa)
heavy: not shown
chain: QVQLVQSGAEVKKPGASVKVSCKASGYTFTDYGFSWVRQAPGQGLEWMGWITAYNGNTNYAQKLQGRVTMTTDTSTSTVYMELRSLRSDDTAVYYCARDYFYGMDVWGQGTTVTVSSASTKGPSVFPLAPSSKSTSGGTAALGCLVKDYFPEPVTVSWNSGALTSGVHTFPAVLQSSGLYSLSSVVTVPSSSLGTQTYICNVNHKPSNTKVDKKVEPKSC
light: not shown
notes: as for B1
For the molecule B3, in test [3], the Kd is 0.379 nM, the koff was 6.14e-05 s⁻¹ and the kon was determined as 162000 M⁻¹ s⁻¹. In test [4], the Kd was found to be 11.1 nM, the koff stood at 0.0156 s⁻¹ and the kon was 1.4e+06 M⁻¹ s⁻¹.
